Laboratory results from patent US20170342155A1 (Amgen, published 2017).

Molecular target: T1, wild-type human CCR7 (pcDNA3.1 Neo-hCCR7, 20100121357) (human, UniProt P32248 25-378)
T1 construct: Expressed on transfected 293T, CHO AM1/D or HEK293T cells; also called huCCR7; CCR7 receptor
T1 sequence: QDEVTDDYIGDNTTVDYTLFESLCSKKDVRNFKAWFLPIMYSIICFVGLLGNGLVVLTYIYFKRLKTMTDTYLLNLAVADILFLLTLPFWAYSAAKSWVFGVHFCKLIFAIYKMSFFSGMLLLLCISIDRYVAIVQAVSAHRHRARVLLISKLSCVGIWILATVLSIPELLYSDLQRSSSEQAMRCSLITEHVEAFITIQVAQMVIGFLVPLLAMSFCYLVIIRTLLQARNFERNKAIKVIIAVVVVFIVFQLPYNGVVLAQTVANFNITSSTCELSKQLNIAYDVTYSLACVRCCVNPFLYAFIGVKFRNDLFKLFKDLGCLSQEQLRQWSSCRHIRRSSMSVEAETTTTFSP
Assay: hybridoma screening on cells expressing human CCR7

binding result: binds
B1: antibody 6B4.1 (antibody, V domains shown)
VH: QVQLVESGGGVVQPGRSLRLSCAASGFTFSSYGMHWVRQAPGKGLEWVAVIWYDGSKKYYADSVKGRFTISRDNSKNTLYLQMNRLRAEDTAVYYCARDGGIAVFLQDNWFDPWGQGTLVTVSS
VL: SYELTQPPSVSVSPGQRARITCSGDKLGDKYASWYQQKPGQSPLLVIYQDSKRPSGIPERFSGSNSGNTATLTISGTQAMDEADYYCQAWGSSTVIFGGGTKLTVLG
notes: Human antibody from XenoMouse hybridoma; Light = 2 and heavy = 42 is inferred from the order of the listing (light chains first)
